According to patent US7960155B1, “Cytochrome p450 monooxygenases and their use for oxidizing organic compounds” (BASF Aktiengesellschaft, priority 1999, dated 2011):

Key:
[1] = Activity test for the indole hydroxylation (kinetic parameters); type: biochemical; conditions: excess of purified enzyme and high indole concentration for the wild type
Protocol: The indole hydroxylation activity was tested in a solution which contained 8 μl of a 10-500 mM indole solution in DMSO, 850 μl of tris/HCl buffer (0.1 M, pH 8.2) and 0.6 nmol of P450 BM-3 wild type or mutant in a final volume of 1 ml. The mixture was preincubated for 9 min before the reaction was started by addition of 50 μl of an aqueous 1 mM solution of NADPH. The reaction was stopped after 20 sec by addition of 60 μl of 1.2 M KOH. Within 5 to 30 sec (under aerobic conditions), the enzyme products were converted completely into indigo [Δ^2,2′-biindoline]-3,3′-dione) and indirubin ([Δ^2,3′-biindoline]-2′,3-dione). The indigo production was determined by means of its absorption at 670 nm. […] A linear curve was obtained for indigo production in a reaction time of 40 sec using 0.6 nmol of wild type or P450 BM-3 mutant and 0.05 to 5.0 mM of indole. […] The formation of indirubin was neglected in the determination of the kinetic parameters. The NADPH consumption was determined at 340 nm and calculated as described (17) using an extinction coefficient of 6.2 mM^−1 cm^−1.
Pure samples of the wild-type enzyme P450 BM-3 and of the mutants Leu188Gln, Phe87Val, F87L188 and F87L188A74 were used for the determination of the kinetic parameters of indole hydroxylation.

[2] = Production of indigo using isolated enzymes (colour reaction with indole and NADPH); type: biochemical
Description: It is known that indigo is accessible from indole by microbial transformation (24-26). None of these microbial systems, however, contained a P450 monooxygenase. According to the invention, the catalytic activity of the pure enzyme for indole was first determined. The mutant F87L188A74 was mixed with indole. No color reaction could be observed. […] By adjustment of the pH of the reaction mixture to a value of approximately 11, 30 sec after addition of NADPH, the blue coloration was visible within a few seconds. […] The blue pigment was extracted using ethyl acetate and analyzed by TLC. The blue pigment again separated into a more rapidly running blue component and into a slower running red component. The Rf values and the absorption spectra were identical to those values of the extracts from the fermentation broth. The F87L188A74 mutant of P450 BM-3 is thus an indole hydroxylase.

B1: WT: wild-type cytochrome P450 monooxygenase BM-3 from Bacillus megaterium (SEQ ID NO:2) (protein, listed as Bacillus megaterium)
chain: TIKEMPQPKTFGELKNLPLLNTDKPVQALMKIADELGEIFKFEAPGRVTRYLSSQRLIKEACDESRFDKNLSQALKFVRDFAGDGLFTSWTHEKNWKKAHNILLPSFSQQAMKGYHAMMVDIAVQLVQKWERLNADEHIEVPEDMTRLTLDTIGLCGFNYRFNSFYRDQPHPFITSMVRALDEAMNKLQRANPDDPAYDENKRQFQEDIKVMNDLVDKIIADRKASGEQSDDLLTHMLNGKDPETGEPLDDENIRYQIITFLIAGHETTSGLLSFALYFLVKNPHVLQKAAEEAARVLVDPVPSYKQVKQLKYVGMVLNEALRLWPTAPAFSLYAKEDTVLGGEYPLEKGDELMVLIPQLHRDKTIWGDDVEEFRPERFENPSAIPQHAFKPFGNGQRACIGQQFALHEATLVLGMMLKHFDFEDHTNYELDIKETLTLKPEGFVVKAKSKKIPLGGIPSPSTEQSAKKVRKKAENAHNTPLLVLYGSNMGTAEGTARDLADIAMSKGFAPQVATLDSHAGNLPREGAVLIVTASYNGHPPDNAKQFVDWLDQASADEVKGVRYSVFGCGDKNWATTYQKVPAFIDETLAAKGAENIADRGEADASDDFEGTYEEWREHMWSDVAAYFNLDIENSEDNKSTLSLQFVDSAADMPLAKMHGAFSTNVVASKELQQPGSARSTRHLEIELPKEASYQEGDHLGVIPRNYEGIVNRVTARFGLDASQQIRLEAEEEKLAHLPLAKTVSVEELLQYVELQDPVTRTQLRAMAAKTVCPPHKVELEALLEKQAYKEQVLAKRLTMLELLEKYPACEMKFSEFIALLPSIRPRYYSISSSPRVDEKQASITVSVVSGEAWSGYGEYKGIASNYLAELQEGDTITCFISTPQSEFTLPKDPETPLIMVGPGTGVAPFRGFVQARKQLKEQGQSLGEAHLYFGCRSPHEDYLYQEELENAQSEGIITLHTAFSRMPNQPKTYVQHVMEQDGKKLIELLDQGAHFYICGDGSQMAPAVEATLMKSYADVHQVSEADARLWLQQLEEKGRYAKDVWAG
indole oxidation activity (in words) [1]: not able to oxidize indole | blue pigment formation with pure enzyme, indole and NADPH [2]: always negative
